This data set deals with the molecule itself.

“And” between values parts separate entries of the source, which are not always exact repeats. Equal values may be shown once.

B1: H84T-banana lectin (H84T-BanLec) (designed binder)
chain: MNGAIKVGAWGGNGGSAFDMGPAYRIISVKIFSGDVVDAVDVTFTYYGKTETRHFGGSGGTPHEIVLQEGEYLVGMKGEFGNYTGVVVVGKLGFSTNKKSYGPFGNTGGTPFSLPIAAGKISGFFGRGGDFIDAIGVYLEP
Regarding B1, the “stoichiometry N” value was 2 and 4.

As usually defined, the stoichiometry N is a count of units in the complex or per binding partner.

Source of the values: paper PMC9519379 (Cell Reports Medicine, 2022).
